Data taken from patent publication US20200237885A1, “VACCINES FOR TREATMENT AND PREVENTION OF CANCER” (Agenus Inc., priority 2015, published 2020).
Where no end group is shown, it is not given here. [ ]: non-standard residue; d: D form. pS = N[C@@H](COP(=O)(O)O)C(=O)O

Key:
recombinant human Hsc70 [1] = molecular target: T1, recombinant human Hsc70 (Homo sapiens, UniProt P11142); experiment: Hsc70-peptide complex formation by size exclusion chromatography (SEC); format: binding; conditions: for Percentage of Hsc70 loaded with peptide: peptide:Hsc70 4:1 molar excess, PBS 37° C. 1 hour
T1 construct: purchased Biomay AG
T1 sequence (P11142 whole entry): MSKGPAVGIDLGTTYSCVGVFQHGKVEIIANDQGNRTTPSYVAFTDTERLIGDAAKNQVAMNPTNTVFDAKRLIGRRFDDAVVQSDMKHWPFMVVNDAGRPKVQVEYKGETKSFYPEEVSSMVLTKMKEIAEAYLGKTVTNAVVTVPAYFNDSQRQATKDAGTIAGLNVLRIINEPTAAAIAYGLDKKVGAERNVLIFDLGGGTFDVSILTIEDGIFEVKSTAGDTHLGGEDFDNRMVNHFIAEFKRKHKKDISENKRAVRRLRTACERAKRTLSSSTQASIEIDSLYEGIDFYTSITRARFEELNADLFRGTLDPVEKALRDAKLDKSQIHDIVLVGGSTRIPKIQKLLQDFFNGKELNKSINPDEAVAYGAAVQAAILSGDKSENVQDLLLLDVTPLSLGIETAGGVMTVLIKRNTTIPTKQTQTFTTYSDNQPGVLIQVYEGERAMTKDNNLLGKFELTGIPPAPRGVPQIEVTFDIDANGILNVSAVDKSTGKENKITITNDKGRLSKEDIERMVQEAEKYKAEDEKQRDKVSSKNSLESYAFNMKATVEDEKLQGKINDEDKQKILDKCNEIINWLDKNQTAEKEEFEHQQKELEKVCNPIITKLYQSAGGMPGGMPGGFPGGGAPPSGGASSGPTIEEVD
Description: Hsc70-peptide complex formation was examined in vitro using size exclusion chromatography (SEC). Hsc70 resolves in two main peaks on a size exclusion column, with one peak corresponding to its monomeric form and the other peak to an oligomeric form (FIG. 14). Hsc70 undergoes a conformational change upon binding peptide (Zhuravleva and Gierasch, P.N.A.S. 112[22]:E2865-73 [2015]), resulting in the appearance of a new peak on the SEC chromatogram that corresponds to the peptide-bound form (FIG. 15). By measuring the surface area of each of the peaks corresponding to the forms of Hsc70 on a chromatogram, the percentage of Hsc70 complexed with a peptide can be determined. The effect of the molar ratio of Hsc70 to peptide on Hsc70-peptide complex formation was determined by combining Hsc70 and a test peptide at Hsc70/peptide molar ratios of 1:4, 1:10, 1:20, and 1:50, and then resolving the resulting mixtures by SEC to determine the extent of complex formation. The peptide used in these experiments was the immunogenic peptide B16-M27 (“M27”), containing a B16-F10 melanoma-specific mutation, as described in Kreiter et al., Nature 520(7549):692-6 (2015) (also described in Examples 9-11). The effect on complex formation of appending a high affinity Hsc70-binding peptide sequence to a chicken ovalbumin peptide having the amino acid sequence SIINFEKL (SEQ ID NO:448), that is highly immunogenic in mice (Zehn et al, Nature 458:211-214 [12 Mar., 2009]) was also tested. The high affinity Hsc70 binding sequence, NLLRLTG (SEQ ID NO:439) was appended to either the C- or N-terminus of the ovalbumin peptide, and was linked to the ovalbumin peptide by a linker having the sequence FFRK (SEQ ID NO:447), as disclosed in U.S. Pat. No. 7,309,491.
Standard size exclusion chromatography was carried out using 7 μM of recombinant human Hsc70 (Genbank Accession No. P11142.1) (Biomay AG) in a reaction buffer containing 20 mM HEPES and 200 mM KCL in a final volume of 50 μl. Reactions were incubated at 37° C. for 1 or 2 hours and centrifuged 2 min at 13000 RPM. Reaction products (10 μg) were resolved on a TSKgel SuperSW3000, 4 μm particle size, 25 nm pore size gel filtration chromatography column (Tosoh Bioscience). For reactions containing peptide, peptide was included in the reaction mixtures at Hsc70:peptide molar ratios of 1:4, 1:10, 1:20, and 1:50. The percentage of Hsc70 complexed with peptide in each reaction mixture was calculated by measuring the surface area of the appropriate peak.
The peptides listed above were individually incubated with Hsc70 in PBS at 37° C. for 1 hour to form non-covalent Hsc70-peptide complexes. For M27 and M30, the peptides were added to Hsc70 at a 20:1 molar excess (peptide:Hsc70) while for M27-Jav and M30-Jav, the peptides were added at a 4:1 molar excess. After incubation, the mixtures were diluted 10 times in PBS at 4° C. and concentrated using a 30 kDa MW cut off Millipore® Amicon® centrifugal filter to separate Hsc70-peptide complexes from free, uncomplexed peptide. The retained complexes 5 Hsc70-M27 and Hsc70-M30 were pooled and subsequently analyzed by size exclusion chromatography (SEC) to quantify the proportion of Hsc70 molecules loaded with peptide. […] The same pooling, filtration and SEC analysis steps were followed for the Hsc70-M27-Jay and Hsc70-M30-Jav complexes with the observation that 73% of the Hsc70 molecules were loaded with the peptides.
Four peptides (Table 9) containing a phosphorylated serine residue were synthesized to 95% purity (GenScript, Cambridge, Mass.). The peptides comprise HLA-A*02:01 binding epitopes of the CDC25 or IRS-2 antigen modified at either their C-termini or N-termini with the addition of a linker sequence FFRK (SEQ ID NO:447) and a high affinity HSP binding peptide sequence NLLRLTG (SEQ ID NO: 439). These peptides were individually incubated with Hsc70 in PBS at 37° C. for 1 hour at a 4:1 molar excess (peptide:Hsc70) to form non-covalent Hsc70-peptide complexes. […]

recombinant human Hsc70 [2] = molecular target: T1, recombinant human Hsc70; experiment: as above; format: binding
[3] = Hsc70:peptide molar ratio 1:10, 37° C.

| Substance | Percentage of Hsc70 loaded with peptide (recombinant human Hsc70 [1]) [%] | percentage of Hsc70 complexed with peptide (recombinant human Hsc70 [1]; [3]) | further results |
| --- | --- | --- | --- |
| GLLG{pSer}PVRAFFRKNLLRLTG (GLLG[pS]PVRAFFRKNLLRLTG) [SEQ ID NO 474] | 74 |  |  |
| NLLRLTGFFRKGLLG{pSer}PVRA (NLLRLTGFFRKGLLG[pS]PVRA) [SEQ ID NO 473] | 41 |  |  |
| NLLRLTGFFRKRVA{pSer}PTSGV (NLLRLTGFFRKRVA[pS]PTSGV) [SEQ ID NO 475] | 34 |  |  |
| REGVELCPGNKYEMRRHGTTHSLVIHD (M27) |  | approximately 40% | change in extent of complex formation with incubation time (recombinant human Hsc70 [2]; incubation time increased from 2 to 3 hours at 37° C.): only a minor increase; percentage of Hsc70 bound to peptide (recombinant human Hsc70 [1]; Hsc70:peptide molar ratio 1:4, 37° C.): 20%; percentage of Hsc70 complexed with peptide (recombinant human Hsc70 [1]; Hsc70:peptide molar ratio 1:20, 37° C.): approximately 50%; percentage of Hsc70 complexed with peptide (recombinant human Hsc70 [1]; Hsc70:peptide molar ratio 1:50, 37° C.): approximately 65% |
| RVA{pSer}PTSGVFFRKNLLRLTG (RVA[pS]PTSGVFFRKNLLRLTG) [SEQ ID NO 476] | 75 |  |  |
| SIINFEKLFFRKNLLRLTG [SEQ ID NO:449, reference compound] |  | over 90% | extent of complex formation, NLLRLTG at C-terminus compared to N-terminus (recombinant human Hsc70 [2]; Hsc70:peptide molar ratio 1:2, same result at 1:5): significantly greater |
